Tests used:
[1] = target: OmpG^L3-FLAG (Escherichia coli) (UniProt P76045); assay: single-channel current recording, N=3 pores, n=9 binding events
[2] = target: OmpG^Q224-FLAG (Escherichia coli) (UniProt P76045); assay: single-channel current recording, 30 nM FG4R
[3] = target: OmpG^Q224-FLAG (Escherichia coli) (UniProt P76045); assay: single-channel current recording, 30 nM antibody, 50 mV, 30 pA pores

Substance “Monoclonal mouse anti-FLAG antibody FG4R [RRID AB_1957945]” has a reduction in pore conductance in the bound state [1] of 5.02% and a reduction of current flow in the bound state [2] of 10%.
“FLAG tag monoclonal antibody OTI4C5 (OriGene Technologies)” was tested, and the reduction in current in the bound state [3] was 20 pA.

Source: US20240036027A1
